T1: TNFR1 (Homo sapiens, UniProt P19438)
T1 chain: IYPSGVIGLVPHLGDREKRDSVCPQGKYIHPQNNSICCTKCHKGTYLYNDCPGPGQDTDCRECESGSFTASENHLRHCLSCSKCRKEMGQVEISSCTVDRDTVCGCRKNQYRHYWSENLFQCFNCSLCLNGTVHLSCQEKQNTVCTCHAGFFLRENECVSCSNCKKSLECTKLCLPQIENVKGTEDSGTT


Molecular target: T1, TNFR1
Assay: yeast display SC50

Binder | apparent Kd (screen) [nM]
L12M (designed binder) MTLQELLREEAMRRAEAEAFRYALELLAEKFPEQKEYLLDLAEEIESQIRSLSGVDVEDVRKFLDKEWAWVKELLAEHPAELAEVEAARAARLAELRAEVEAKVAA | 0.593
A15N (designed binder) MTLQELLREEALRRNEAEAFRYALELLAEKFPEQKEYLLDLAEEIESQIRSLSGVDVEDVRKFLDKEWAWVKELLAEHPAELAEVEAARAARLAELRAEVEAKVAA | 0.653
L3G (designed binder) MTGQELLREEALRRAEAEAFRYALELLAEKFPEQKEYLLDLAEEIESQIRSLSGVDVEDVRKFLDKEWAWVKELLAEHPAELAEVEAARAARLAELRAEVEAKVAA | 20.2
L96M (designed binder) MTLQELLREEALRRAEAEAFRYALELLAEKFPEQKEYLLDLAEEIESQIRSLSGVDVEDVRKFLDKEWAWVKELLAEHPAELAEVEAARAARLAEMRAEVEAKVAA | 0.718
A106P (designed binder) MTLQELLREEALRRAEAEAFRYALELLAEKFPEQKEYLLDLAEEIESQIRSLSGVDVEDVRKFLDKEWAWVKELLAEHPAELAEVEAARAARLAELRAEVEAKVAP | 0.539
E5Q (designed binder) MTLQQLLREEALRRAEAEAFRYALELLAEKFPEQKEYLLDLAEEIESQIRSLSGVDVEDVRKFLDKEWAWVKELLAEHPAELAEVEAARAARLAELRAEVEAKVAA | 0.49
L7D (designed binder) MTLQELDREEALRRAEAEAFRYALELLAEKFPEQKEYLLDLAEEIESQIRSLSGVDVEDVRKFLDKEWAWVKELLAEHPAELAEVEAARAARLAELRAEVEAKVAA | 0.79
E5D (designed binder) MTLQDLLREEALRRAEAEAFRYALELLAEKFPEQKEYLLDLAEEIESQIRSLSGVDVEDVRKFLDKEWAWVKELLAEHPAELAEVEAARAARLAELRAEVEAKVAA | 0.49
L82S (designed binder) MTLQELLREEALRRAEAEAFRYALELLAEKFPEQKEYLLDLAEEIESQIRSLSGVDVEDVRKFLDKEWAWVKELLAEHPAESAEVEAARAARLAELRAEVEAKVAA | 1.54
L41C (designed binder) MTLQELLREEALRRAEAEAFRYALELLAEKFPEQKEYLLDCAEEIESQIRSLSGVDVEDVRKFLDKEWAWVKELLAEHPAELAEVEAARAARLAELRAEVEAKVAA | 2.48
K30T (designed binder) MTLQELLREEALRRAEAEAFRYALELLAETFPEQKEYLLDLAEEIESQIRSLSGVDVEDVRKFLDKEWAWVKELLAEHPAELAEVEAARAARLAELRAEVEAKVAA | 0.653
L24M (designed binder) MTLQELLREEALRRAEAEAFRYAMELLAEKFPEQKEYLLDLAEEIESQIRSLSGVDVEDVRKFLDKEWAWVKELLAEHPAELAEVEAARAARLAELRAEVEAKVAA | 0.718
T2G (designed binder) MGLQELLREEALRRAEAEAFRYALELLAEKFPEQKEYLLDLAEEIESQIRSLSGVDVEDVRKFLDKEWAWVKELLAEHPAELAEVEAARAARLAELRAEVEAKVAA | 1.16
A87M (designed binder) MTLQELLREEALRRAEAEAFRYALELLAEKFPEQKEYLLDLAEEIESQIRSLSGVDVEDVRKFLDKEWAWVKELLAEHPAELAEVEMARAARLAELRAEVEAKVAA | 0.49
F63Q (designed binder) MTLQELLREEALRRAEAEAFRYALELLAEKFPEQKEYLLDLAEEIESQIRSLSGVDVEDVRKQLDKEWAWVKELLAEHPAELAEVEAARAARLAELRAEVEAKVAA | 2.73
L74I (designed binder) MTLQELLREEALRRAEAEAFRYALELLAEKFPEQKEYLLDLAEEIESQIRSLSGVDVEDVRKFLDKEWAWVKEILAEHPAELAEVEAARAARLAELRAEVEAKVAA | 2.73
L12S (designed binder) MTLQELLREEASRRAEAEAFRYALELLAEKFPEQKEYLLDLAEEIESQIRSLSGVDVEDVRKFLDKEWAWVKELLAEHPAELAEVEAARAARLAELRAEVEAKVAA | 1.16
R50V (designed binder) MTLQELLREEALRRAEAEAFRYALELLAEKFPEQKEYLLDLAEEIESQIVSLSGVDVEDVRKFLDKEWAWVKELLAEHPAELAEVEAARAARLAELRAEVEAKVAA | 1.4

Binder | apparent Kd (screen) [nM]
A28Q (designed binder) MTLQELLREEALRRAEAEAFRYALELLQEKFPEQKEYLLDLAEEIESQIRSLSGVDVEDVRKFLDKEWAWVKELLAEHPAELAEVEAARAARLAELRAEVEAKVAA | 4.83
K30A (designed binder) MTLQELLREEALRRAEAEAFRYALELLAEAFPEQKEYLLDLAEEIESQIRSLSGVDVEDVRKFLDKEWAWVKELLAEHPAELAEVEAARAARLAELRAEVEAKVAA | 1.05
A90Q (designed binder) MTLQELLREEALRRAEAEAFRYALELLAEKFPEQKEYLLDLAEEIESQIRSLSGVDVEDVRKFLDKEWAWVKELLAEHPAELAEVEAARQARLAELRAEVEAKVAA | 0.593
F63G (designed binder) MTLQELLREEALRRAEAEAFRYALELLAEKFPEQKEYLLDLAEEIESQIRSLSGVDVEDVRKGLDKEWAWVKELLAEHPAELAEVEAARAARLAELRAEVEAKVAA | 0.869
F63P (designed binder) MTLQELLREEALRRAEAEAFRYALELLAEKFPEQKEYLLDLAEEIESQIRSLSGVDVEDVRKPLDKEWAWVKELLAEHPAELAEVEAARAARLAELRAEVEAKVAA | 2.48
K30M (designed binder) MTLQELLREEALRRAEAEAFRYALELLAEMFPEQKEYLLDLAEEIESQIRSLSGVDVEDVRKFLDKEWAWVKELLAEHPAELAEVEAARAARLAELRAEVEAKVAA | 0.539
L24H (designed binder) MTLQELLREEALRRAEAEAFRYAHELLAEKFPEQKEYLLDLAEEIESQIRSLSGVDVEDVRKFLDKEWAWVKELLAEHPAELAEVEAARAARLAELRAEVEAKVAA | 1.54
M1I (designed binder) ITLQELLREEALRRAEAEAFRYALELLAEKFPEQKEYLLDLAEEIESQIRSLSGVDVEDVRKFLDKEWAWVKELLAEHPAELAEVEAARAARLAELRAEVEAKVAA | 0.49
A90S (designed binder) MTLQELLREEALRRAEAEAFRYALELLAEKFPEQKEYLLDLAEEIESQIRSLSGVDVEDVRKFLDKEWAWVKELLAEHPAELAEVEAARSARLAELRAEVEAKVAA | 0.49
E36Y (designed binder) MTLQELLREEALRRAEAEAFRYALELLAEKFPEQKYYLLDLAEEIESQIRSLSGVDVEDVRKFLDKEWAWVKELLAEHPAELAEVEAARAARLAELRAEVEAKVAA | 0.539
I49C (designed binder) MTLQELLREEALRRAEAEAFRYALELLAEKFPEQKEYLLDLAEEIESQCRSLSGVDVEDVRKFLDKEWAWVKELLAEHPAELAEVEAARAARLAELRAEVEAKVAA | 2.48
L26N (designed binder) MTLQELLREEALRRAEAEAFRYALENLAEKFPEQKEYLLDLAEEIESQIRSLSGVDVEDVRKFLDKEWAWVKELLAEHPAELAEVEAARAARLAELRAEVEAKVAA | 0.49
L27Q (designed binder) MTLQELLREEALRRAEAEAFRYALELQAEKFPEQKEYLLDLAEEIESQIRSLSGVDVEDVRKFLDKEWAWVKELLAEHPAELAEVEAARAARLAELRAEVEAKVAA | 0.446
A42Y (designed binder) MTLQELLREEALRRAEAEAFRYALELLAEKFPEQKEYLLDLYEEIESQIRSLSGVDVEDVRKFLDKEWAWVKELLAEHPAELAEVEAARAARLAELRAEVEAKVAA | 11.4
A69M (designed binder) MTLQELLREEALRRAEAEAFRYALELLAEKFPEQKEYLLDLAEEIESQIRSLSGVDVEDVRKFLDKEWMWVKELLAEHPAELAEVEAARAARLAELRAEVEAKVAA | 0.79
L96G (designed binder) MTLQELLREEALRRAEAEAFRYALELLAEKFPEQKEYLLDLAEEIESQIRSLSGVDVEDVRKFLDKEWAWVKELLAEHPAELAEVEAARAARLAEGRAEVEAKVAA | 2.48
A15W (designed binder) MTLQELLREEALRRWEAEAFRYALELLAEKFPEQKEYLLDLAEEIESQIRSLSGVDVEDVRKFLDKEWAWVKELLAEHPAELAEVEAARAARLAELRAEVEAKVAA | 0.593
